# Test results taken from PMC4777393, “Structural Basis for Recognition of Human Enterovirus 71 by a Bivalent Broadly Neutralizing Monoclonal Antibody” (PLoS Pathogens, 2016).
# Substitutions are numbered along the chain they refer to.
# T1: EV71 mature virion (F-particle), inactivated (Enterovirus A71, strain of the …)
# T1 construct: VP1 of enterovirus 71, cut product of the polyprotein; PDB 3VBS is the crystal structure fitted into the map and may be of another strain; numbers count on: the mature VP1 chain; VP2 of enterovirus 71, cut product of VP0 of the polyprotein; numbers count on: the mature VP2 chain; VP3 of enterovirus 71, cut product of the polyprotein; numbers count on: the mature VP3 chain; VP4 of enterovirus 71, …
# T1 chain 1: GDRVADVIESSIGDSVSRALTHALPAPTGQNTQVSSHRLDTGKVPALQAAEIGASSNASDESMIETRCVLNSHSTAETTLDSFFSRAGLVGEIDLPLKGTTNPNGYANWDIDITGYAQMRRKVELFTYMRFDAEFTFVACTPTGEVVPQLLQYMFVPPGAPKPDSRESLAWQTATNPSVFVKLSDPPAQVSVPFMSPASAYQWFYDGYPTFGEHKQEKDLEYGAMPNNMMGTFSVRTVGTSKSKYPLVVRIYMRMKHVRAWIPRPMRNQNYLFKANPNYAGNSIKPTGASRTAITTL
# T1 chain 2: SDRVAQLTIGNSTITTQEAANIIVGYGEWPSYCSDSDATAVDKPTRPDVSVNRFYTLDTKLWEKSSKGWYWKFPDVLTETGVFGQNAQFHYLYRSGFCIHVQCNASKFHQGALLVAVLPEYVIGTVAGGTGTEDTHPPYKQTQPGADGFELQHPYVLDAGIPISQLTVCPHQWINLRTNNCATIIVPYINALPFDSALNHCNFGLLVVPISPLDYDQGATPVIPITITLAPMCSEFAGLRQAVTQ
# T1 chain 3: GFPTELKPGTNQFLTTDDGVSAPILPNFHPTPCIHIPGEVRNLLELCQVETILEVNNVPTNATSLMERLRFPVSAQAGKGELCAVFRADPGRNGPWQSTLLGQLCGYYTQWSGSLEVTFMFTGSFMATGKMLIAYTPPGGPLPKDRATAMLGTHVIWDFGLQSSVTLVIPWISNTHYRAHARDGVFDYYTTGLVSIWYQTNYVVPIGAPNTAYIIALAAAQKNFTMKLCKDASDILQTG
# T2: SP70 peptide (amino acid residues 208 to 222 of EV71 VP1) (Enterovirus 71; stretch identical among …)
# T2 construct: VP1 of enterovirus 71, residues 208 to 222, corresponding to the GH-loop; Q66478 is strain BrCr; numbers count on: the mature VP1 chain
# T2 chain: YPTFGEHKQEKDLEY
# B1: D5 intact IgG (antibody, V domains shown)
# VH: EVQLQQSGAELVKPGASVKLSCTASGFNIKDTYIHWVKQRPEQGLEWIGKIDPANGNTKYDPKFQDKATITADTSSNTAYLQLSSLTSEDTAVYYCANSNYWFDFDYWGQGTTLTVSS
# VL: DVLMTQTPLSLPVSLGDQASISCRSSQSIVHSNGNTYLEWYLQKPGQSPKLLIYKVSNRFSGVPDRFSGSGSGTDFTLKISRVEADDVGVYYCYQGSHVPYTFGGGTKLEIK
# notes: variable region of the D5 heavy chain (VH, 1-118 aa); constant region of the mouse IgG heavy chain; variable region of the D5 light chain (VL, 1-113 aa); constant region of the mouse light chain; also called MAb D5; mAb D5; source: D5 hybridoma (mouse)
# B2: D5 scFv-F103A (scFv, V domains shown)
# VH: B1 VH with F103A
# VL: B1 VL
# notes: variable region of the D5 heavy chain (VH, 1-118 aa), as the VH of m3 with the stated change; 11-amino acid residue (GGGGS)2G linker; variable region of the D5 light chain (VL, 1-113 aa), as the VL of m3; Point mutant of m3 in the heavy chain CDR3; source: E. coli BL21, purified from the soluble fraction (Ni-NTA)
# B3: D5 wild-type single-chain variable fragment (scFv-WT) (scFv, V domains shown)
# VH: B1 VH
# VL: B1 VL
# notes: variable region of the D5 heavy chain (VH, 1-118 aa); 11-amino acid residue (GGGGS)2G linker; variable region of the D5 light chain (VL, 1-113 aa); Cloned in pET28b; also called wild-type scFv; VH-(GGGGS)2G-VL; source: E. coli BL21, purified from the soluble fraction (Ni-NTA)
# B4: D5 Fab (Fab, V domains shown)
# VH: B1 VH
# VL: B1 VL
# notes: variable region of the D5 heavy chain (VH, 1-118 aa), as the heavy chain of m1; constant part of the Fab heavy chain left by papain; variable region of the D5 light chain (VL, 1-113 aa), as the light chain of m1; constant region of the mouse light chain; also called Fab of D5; D5 Fab fragment; source: papain digestion of D5 IgG, purified (Hitrap Protein G, Sephacryl S-100)
# B5: D5 scFv-N100A (scFv, V domains shown)
# VH: B1 VH with N100A
# VL: B1 VL
# notes: as for B2
# Columns and labels:
# [1] = molecular target: EV71 procapsid (E-particle), inactivated; assay: ELISA; conditions: read off a plot
# [2] = molecular target: EV71 virus-like particle (VLP); assay: ELISA; conditions: read off a plot
# [3] = molecular target: EV71 mature virion (F-particle), inactivated; assay: ELISA; conditions: read off a plot
# [4] = molecular target: SP70 peptide (amino acid residues 208 to 222 of EV71 VP1) (UniProt Q66478); assay: ELISA; conditions: read off a plot
# SCARB2-Fc = SCARB2-Fc (UniProt Q14108); assay: pull-down with SCARB2-Fc and anti-human Fc IgG conjugated beads, quantified by qRT-PCR; conditions: 4°C; parent: est. 100; read off a plot
# Sequence of SCARB2-Fc (Q14108 whole entry): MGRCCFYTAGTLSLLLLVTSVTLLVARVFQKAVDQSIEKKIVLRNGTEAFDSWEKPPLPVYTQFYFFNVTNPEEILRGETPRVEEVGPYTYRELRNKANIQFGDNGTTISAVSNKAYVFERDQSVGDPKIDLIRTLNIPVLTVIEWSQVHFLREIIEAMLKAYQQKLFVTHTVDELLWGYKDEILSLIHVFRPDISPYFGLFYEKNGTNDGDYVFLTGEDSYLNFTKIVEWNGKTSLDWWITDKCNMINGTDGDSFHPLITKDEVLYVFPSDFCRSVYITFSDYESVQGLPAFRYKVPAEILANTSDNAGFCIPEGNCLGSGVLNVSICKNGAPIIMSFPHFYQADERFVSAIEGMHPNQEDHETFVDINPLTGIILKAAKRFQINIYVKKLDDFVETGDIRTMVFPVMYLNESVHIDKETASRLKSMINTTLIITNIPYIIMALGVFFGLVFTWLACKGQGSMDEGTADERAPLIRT
# [5] = molecular target: EV71/G082 wild-type virus (enterovirus 71 strain EV71/G082)
# [6] = molecular target: T1, EV71 mature virion (F-particle), …; assay: BLI; Octet RED 96; biotin-labelled inactivated F-particles on streptavidin tips; D5 IgG or Fab at 40 to 0.0128 μg/ml; kinetics buffer (PBS, 0.1% BSA, 0.02% Tween-20), room temperature; called avidities; conditions: both partners purified
# [7] = molecular target: EV71/G082 wild-type virus (enterovirus 71 strain EV71/G082); remark: listed apart in the source
# [8] = molecular target: EV71/G082 wild-type virus (enterovirus 71 strain EV71/G082); remark: listed apart in the source
# [9] = molecular target: T2, SP70 peptide (amino acid residues 208 …); assay: ELISA; plates coated with 20 ng/well E-particle, F-particle or VLP or 100 ng/well SP70 peptide; serially diluted scFv 2 h at 37°C; detected with HRP anti-His antibody; conditions: both partners purified
# [10] = 6.25 ng/well, parent: est. 0.52
# [11] = 6.25 ng/well, parent: est. 0.83
molecule,measurement,setting,value
D5 wild-type single-chain variable fragment (scFv-WT) D104A,response,"[1]; 400 ng/well, parent: est. 2.1",0.08 OD450nm
same,response,"[2]; 400 ng/well, parent: est. 1.8",0.05 OD450nm
same,response,"[3]; 400 ng/well, parent: est. 1.0",0.09 OD450nm
same,response,"[4]; 400 ng/well, parent: est. 3.1",0.05 OD450nm
D5 wild-type single-chain variable fragment (scFv-WT) F103A,response,"[1]; 6.25 ng/well, parent: est. 1.8",0.82 OD450nm
same,response,"[1]; 25 ng/well, parent: est. 2.1",1.6 OD450nm
same,response,"[1]; 100 ng/well, parent: est. 2.2",2.2 OD450nm
same,response,"[1]; 400 ng/well, parent: est. 2.1",2.2 OD450nm
same,response,"[2]; 6.25 ng/well, parent: est. 1.3",0.48 OD450nm
same,response,"[2]; 25 ng/well, parent: est. 1.6",1.1 OD450nm
same,response,"[2]; 100 ng/well, parent: est. 1.8",1.6 OD450nm
same,response,"[2]; 400 ng/well, parent: est. 1.8",1.7 OD450nm
same,response,[3]; [10],0.18 OD450nm
same,response,"[3]; 25 ng/well, parent: est. 0.76",0.42 OD450nm
same,response,"[3]; 100 ng/well, parent: est. 0.88",0.7 OD450nm
same,response,"[3]; 400 ng/well, parent: est. 1.0",0.86 OD450nm
same,response,[4]; [11],0.3 OD450nm
same,response,"[4]; 25 ng/well, parent: est. 2.0",0.95 OD450nm
same,response,"[4]; 100 ng/well, parent: est. 3.0",2.2 OD450nm
same,response,"[4]; 400 ng/well, parent: est. 3.1",2.7 OD450nm
D5 wild-type single-chain variable fragment (scFv-WT) F105A,response,"[1]; 400 ng/well, parent: est. 2.1",0.43 OD450nm
same,response,"[2]; 400 ng/well, parent: est. 1.8",0.2 OD450nm
same,response,"[3]; 400 ng/well, parent: est. 1.0",0.12 OD450nm
same,response,"[4]; 400 ng/well, parent: est. 3.1",0.05 OD450nm
D5 wild-type single-chain variable fragment (scFv-WT) N100A,response,"[1]; 6.25 ng/well, parent: est. 1.8",1.7 OD450nm
same,response,"[1]; 25 ng/well, parent: est. 2.1",2.1 OD450nm
same,response,"[1]; 100 ng/well, parent: est. 2.2",2.4 OD450nm
same,response,"[1]; 400 ng/well, parent: est. 2.1",2.2 OD450nm
same,response,"[2]; 6.25 ng/well, parent: est. 1.3",1.1 OD450nm
same,response,"[2]; 25 ng/well, parent: est. 1.6",1.4 OD450nm
same,response,"[2]; 100 ng/well, parent: est. 1.8",1.8 OD450nm
same,response,"[2]; 400 ng/well, parent: est. 1.8",1.8 OD450nm
same,response,[3]; [10],0.43 OD450nm
same,response,"[3]; 25 ng/well, parent: est. 0.76",0.67 OD450nm
same,response,"[3]; 100 ng/well, parent: est. 0.88",0.9 OD450nm
same,response,"[3]; 400 ng/well, parent: est. 1.0",1 OD450nm
same,response,[4]; [11],0.43 OD450nm
same,response,"[4]; 25 ng/well, parent: est. 2.0",1.3 OD450nm
same,response,"[4]; 100 ng/well, parent: est. 3.0",2.7 OD450nm
same,response,"[4]; 400 ng/well, parent: est. 3.1",3 OD450nm
D5 wild-type single-chain variable fragment (scFv-WT) W102A,response,"[1]; 400 ng/well, parent: est. 2.1",0.3 OD450nm
same,response,"[2]; 400 ng/well, parent: est. 1.8",0.19 OD450nm
same,response,"[3]; 400 ng/well, parent: est. 1.0",0.1 OD450nm
same,response,"[4]; 400 ng/well, parent: est. 3.1",0.05 OD450nm
D5 wild-type single-chain variable fragment (scFv-WT) Y101A,response,"[1]; 400 ng/well, parent: est. 2.1",0.3 OD450nm
same,response,"[3]; 400 ng/well, parent: est. 1.0",0.15 OD450nm
same,response,"[4]; 400 ng/well, parent: est. 3.1",0.05 OD450nm
EV71/G082 wild-type virus K218E,percent of parent,SCARB2-Fc,65%
EV71/G082 wild-type virus K218T,percent of parent,SCARB2-Fc,84%
B1,"IC50 of neutralization (50% inhibition of cell death, MTT assay), EV71/G082",[5],0.183 µg/mL
same,"Neutralization concentration (lowest antibody concentration that fully prevents CPE), EV71/G082",[5],0.313 µg/mL
same,Kd,[6],6 nM
same,"IC50 of neutralization of EV71 G082 on RD cells, post-attachment neutralization assay",[7],10.1 nM
same,"IC50 of neutralization of EV71 G082 (100 TCID50) on RD cells, standard neutralization assay, MTT",[8],2.23 nM
B2,binding result,[9],binds
B3,binding result,[9],binds
B4,Kd,[6],15 nM
same,"IC50 of neutralization of EV71 G082 on RD cells, post-attachment neutralization assay",[7],191 nM
same,"IC50 of neutralization of EV71 G082 (100 TCID50) on RD cells, standard neutralization assay, MTT",[8],37.4 nM
B5,binding result,[9],binds
